Laboratory results: patent US9382316B2, “Humanized anti-EMAP II antibody and use thereof” (Cell & Bio Co., Ltd., dated 2016)
Several values for one entry are separate records, joined by “and”; a condition that tells them apart may be missing. Identical values can stand only once.

Experiments:
[1] = target: T1, human EMAPII (endothelial monocyte activating polypeptide II) antigen (human); experiment: ELISA, plate coated with EMAPII antigen, anti-mouse IgG-HRP detection
T1 chain: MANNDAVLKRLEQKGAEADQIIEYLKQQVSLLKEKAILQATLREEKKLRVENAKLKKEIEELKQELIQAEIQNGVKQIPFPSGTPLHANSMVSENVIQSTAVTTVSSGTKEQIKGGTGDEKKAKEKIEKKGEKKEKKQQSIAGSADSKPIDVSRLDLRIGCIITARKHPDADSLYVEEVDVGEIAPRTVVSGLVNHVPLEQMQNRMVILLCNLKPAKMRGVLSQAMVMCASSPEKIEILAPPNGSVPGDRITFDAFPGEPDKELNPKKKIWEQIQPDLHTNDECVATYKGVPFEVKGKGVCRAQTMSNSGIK

[2] = target: T1, human EMAPII (endothelial monocyte …); experiment: ELISA, plate coated with 2.5 ug/ml EMAPII antigen, anti-human-IgG HRP detection; range over the 3 clones

B1: mouse anti-EMAPII monoclonal antibody (antibody, V domains shown)
VH: QVQLQQSGAELARPGASVKMSCKASGYTFTSYTMHWVKQRPGQGLEWIGYINPSSGFTNYNQKFKDKATLTADKSSSTAYMQLSSLTSEDSAVYYCASRFAYWGQGTLVTVSA
VL: DIVMTQSHKFMSTSVGDRVSITCKASQDVSTAVAWYQQKPGQSPKLLIFSASYRYTGVPDRFTGSGSGTDFTFTISSVQAEDLAVYYCQQHYSTPYTFGGGTKLEIK
B1 gave an EC50 [1] of 0.0209 µg/mL.

B2: mouse/human chimeric antibody BAP015_1 (antibody, V domains shown)
VH: QVQLQQSGAELARPGASVKMSCKASGYTFTSYTMHWVKQRPGQGLEWIGYINPSSGFTNYNQKFKDKATLTADKSSSTAYMQLSSLTSEDSAVYYCASRFAYWGQGTLVTVSA
VL: DIVMTQSHKFMSTSVGDRVSITCKASQDVSTAVAWYQQKPGQSPKLLIFSASYRYTGVPDRFTGSGSGTDFTFTISSVQAEDLAVYYCQQHYSTPYTFGGGTKLEIK
In the case of B2, the EC50 [2] is reported as 0.0215 µg/mL and 0.0302 µg/mL.
